Test results published in patent US20150368616A1, “METHODS FOR INDUCTION OF CELL FATES FROM PLURIPOTENT CELLS” (THE CLEVELAND CLINIC FOUNDATION, priority 2013, published 2015).

Columns and labels:
[1] = tested on: stage 4 forward directed differentiating hES culture; test: Wnt3a at stage 4 of directed differentiation, RT-qPCR and immunohistochemistry; assay type: cell-based, human
Experimental: Panel A—Schematic representation of the two different directed differentiation protocols used throughout this series of experiments. The only difference between the two different differentiation protocols is the inclusion of Wnt3a at stage 4 of the directed differentiation protocol as illustrated. Control Cultures and cultures which had Wnt3a administrated at stage 4 were incubated an additional 4 days in maturation medium before RNA extractions and immunohistochemical analysis were performed. Panel B—An RT-qPCR analysis of the two differing conditions. Transcripts assayed are the endodermal marker FoxA2, the pancreatic progenitor marker Pdx1, the TrPC marker Nkx6.1 and the two endocrine markers Glucagon and Insulin. Note two different primer sets were used for insulin.
Panel C-J—Immunohistochemical analysis of stage 5 (day 4) cultures differentiated in the presence and absence of Wnt3a at stage 4. Panels CD and E-F compare the relative levels of C-peptide and Pdx1 respectively between the two differing differentiation protocols. Panels G-J show the combined expression of C-peptide and Pdx1 at both 10× magnification (panels G-H) and 20× Magnification (panels I-J).
To investigate the role of a canonical Wnt input on a PDX1+ progenitor population, Wnt3a was administered to a stage 4 forward directed differentiating hES culture. […] The relative expression of Pdx1 was increased over ˜5 fold over stage 4 cultures lacking the canonical input and relative transcript levels reached ˜3000 fold over hES controls. While Nkx6.1 levels were modest in comparison, only reaching a ˜3.3 fold increase over the stage 4 cultures lacking the canonical input and a relative transcript fold increase of ˜200 over hES controls. […] Both Glucagon and Insulin relative transcript levels were ˜2 fold greater in stage 4 cultures treated with Wnt3a as compared to stage 4 cultures lacking the canonical Wnt drive (FIG. 62 panel B). While there was a ˜5000 fold increase in Glucagon transcript levels and a ˜2500 fold increase in Insulin transcript levels when compared to hES levels. As a means to confirm the accuracy of the relative Insulin transcript levels two different set of primers were used and both primer sets produced similar results. In addition immunohistochemical analysis of these two different reactions was used to confirm the transcript analysis.

H1 hES cultures = test: Pan-CM induction with reduced serum levels and Wnt3a on the first day, transcript analysis; assay type: cell-based, human
Text: FIG. 16 (A-B)—Reduction of serum levels increases endocrine formation. Pluripotent cultures were passaged onto matrigel and maintained in MEF-conditioned medium for three days before being induced to differentiate by exposure to Pan-CM. Three different conditions were used as outlined in panel A. In the first condition Pan-CM was supplemented with Wnt3a on the first day followed by a 0.2% concentration of FBS for the rest of the reaction. In the second condition Pan-CM was supplemented with 0.2% FBS for the second day on. In the third condition Pan-CM was supplemented with 2% KO serum replacer.
The Pan-CM mediated induction of insulin producing cells from the H1 hES cultures is improved when low concentrations of serum is used. […] Finally it was noted that lower levels of serum reduced to levels of MEOX1 (a gene associated with the mesodermal lineage) observed in these cultures.

pluripotent cultures = test: Defined (cell conditioned) medium versus Pan-CM, 5 day induction with serum variations and Wnt3a; assay type: cell-based, human; settings: Wnt3a on the first day of the induction, 5 day induction period
Experimental: FIG. 44 (A-B)—Cell conditioned medium improves over the Pan-CM induction of pluripotent cells. Pluripotent cultures were passaged onto matrigel and maintained in the presence of MEF conditioned medium for 3 days to maintain pluripotency. They were next subjected to either Pan-CM or our cell conditioned medium supplemented with either 2% KO serum replacer or low concentrations of FBS as defined in panel A. The addition of Wnt3a on the initial day of differentiation was also assayed. […] Note the occurrence of the trunk progenitor cell is best defined with the loss of NKX6.1.
We next explored the ability of our defined medium informed from the transcriptome and sectretome analysis of the Pan-MEF cultures to induce the differentiation of pluripotent cells towards pancreatic fates. This was performed in short term cultures with incubation periods only lasting 5 days (FIG. 43).

Ngn3 = test: Mutational series of Ngn3 in the HepG2 stability assay; assay type: cell-based
Text: FIG. 66 (A-B) illustrates a mutational series of Ngn3, designed to stabilize the protein. A. listing of site directed point mutations. B. Testing of five substitution mutants.
Combined, these analyses served to focus us on the presence of lysines in the Helix 1/loop region and highlighted the importance of N-terminal acetylation protection as well. Of note, The K^118LTK^121 motif in the loop is completely conserved in Ngn3 in vertebrates, including teleosts and amphibians, and also between Ngn family members. Our approach to stabilizing Ngn3 is therefore to create an exhaustive point-substitution series of K>R to cover the entire protein (FIG. 66A), and also create deletion mutants of the N-, and C-termini flanking the bHLH domain. Because K121 is completely conserved in the bHLH family group, and positioned so that it aligns with the Helix 1 axis, this residue is likely critical for the folding/binding dynamics of the HLH domain, and mutation of this may likely impact DNA binding/function. Such constraints are not evident for K^118. We will also substitute the T120 residue in the KLTK loop to a Glutamic acid (E) to mimic a possible stabilizing phosphorylation event, which, based on phylogenetic comparisons to MASH1 may be of importance. […]

[2] = Wnt3A added to Pan-CM on the first day, then 0.2% FBS

B1: Wnt3a: canonical Wnt ligand (protein, UniProt P56704 19-352, looked up)
Protein Wnt-3a: SYPIWWSLAVGPQYSSLGSQPILCASIPGLVPKQLRFCRNYVEIMPSVAEGIKIGIQECQHQFRGRRWNCTTVHDSLAIFGPVLDKATRESAFVHAIASAGVAFAVTRSCAEGTAAICGCSSRHQGSPGKGWKWGGCSEDIEFGGMVSREFADARENRPDARSAMNRHNNEAGRQAIASHMHLKCKCHGLSGSCEVKTCWWSQPDFRAIGDFLKDKYDSASEMVVEKHRESRGWVETLRPRYTYFKVPTERDLVYYEASPNFCEPNPETGSFGTRDRTCNVSSHGIDGCDLLCCGRGHNARAERRREKCRCVFHWCCYVSCQECTRVYDVHTCK
- Glucagon and Insulin relative transcript levels compared to stage 4 cultures lacking the canonical Wnt drive [1]: ~2 fold
- Glucagon transcript levels increase compared to hES levels [1]: ~5000 fold
- Insulin transcript levels increase compared to hES levels [1]: ~2500 fold
- Nkx6.1 increase over the stage 4 cultures lacking the canonical input [1]: ~3.3 fold
- Nkx6.1 relative transcript fold increase over hES controls [1]: ~200 fold
- Pdx1 relative expression over stage 4 cultures lacking the canonical input [1]: > 5 fold
- Pdx1 relative transcript levels over hES controls [1]: ~3000 fold
- HNF1-B up regulation (H1 hES cultures; [2]): ~55 ×
- HNF6 up regulation (H1 hES cultures; [2]): ~85 ×
- insulin transcript levels (H1 hES cultures; Wnt3a on the first day of differentiation in Pan-CM): comparable to the Pan-CM induction with 2% KO serum replacer
- NKX6.1 expression (pluripotent cultures): improved

B2: K86/87 to Arginines: Ngn3 substitution mutant, lysines K86/87 replaced by Arginines, stabilized Ngn3 (protein, UniProt P70661 1-214, looked up, variant K86R K87R)
Neurogenin-3: MAPHPLDALTIQVSPETQQPFPGASDHEVLSSNSTPPSPTLIPRDCSEAEVGDCRGTSRKLRARRGGRNRPKSELALSKQRRSRRRRANDRERNRMHNLNSALDALRGVLPTFPDDAKLTKIETLRFAHNYIWALTQTLRIADHSFYGPEPPVPCGELGSPGGGSNGDWGSIYSPVSQAGNLSPTASLEEFPGLQVPSSPSYLLPGALVFSDFL
- Ngn3 protein stability (Ngn3): lead to stabilization
